{
  "source": "paper PMC6175940",
  "about": "“Increasing the distance between two monomers of topoisomerase IIβ under the action of antitumor agent 4β-sulfur-(benzimidazole) 4′-demethylepipodophyllotoxin”",
  "binders": {"B1": {"name": "20-bp DNA substrate for crystallography (dsDNA)", "DNA 1": "AGCCGAGCTGCAGCTCGGCT", "DNA 2": "AGCCGAGCTGCAGCTCGGCT"}},
  "molecular_target": "hTop2βcore (human topoisomerase IIβ catalytic core) (human, UniProt Q02880 450-1206)",
  "sequence (Q02880 450-1206)": "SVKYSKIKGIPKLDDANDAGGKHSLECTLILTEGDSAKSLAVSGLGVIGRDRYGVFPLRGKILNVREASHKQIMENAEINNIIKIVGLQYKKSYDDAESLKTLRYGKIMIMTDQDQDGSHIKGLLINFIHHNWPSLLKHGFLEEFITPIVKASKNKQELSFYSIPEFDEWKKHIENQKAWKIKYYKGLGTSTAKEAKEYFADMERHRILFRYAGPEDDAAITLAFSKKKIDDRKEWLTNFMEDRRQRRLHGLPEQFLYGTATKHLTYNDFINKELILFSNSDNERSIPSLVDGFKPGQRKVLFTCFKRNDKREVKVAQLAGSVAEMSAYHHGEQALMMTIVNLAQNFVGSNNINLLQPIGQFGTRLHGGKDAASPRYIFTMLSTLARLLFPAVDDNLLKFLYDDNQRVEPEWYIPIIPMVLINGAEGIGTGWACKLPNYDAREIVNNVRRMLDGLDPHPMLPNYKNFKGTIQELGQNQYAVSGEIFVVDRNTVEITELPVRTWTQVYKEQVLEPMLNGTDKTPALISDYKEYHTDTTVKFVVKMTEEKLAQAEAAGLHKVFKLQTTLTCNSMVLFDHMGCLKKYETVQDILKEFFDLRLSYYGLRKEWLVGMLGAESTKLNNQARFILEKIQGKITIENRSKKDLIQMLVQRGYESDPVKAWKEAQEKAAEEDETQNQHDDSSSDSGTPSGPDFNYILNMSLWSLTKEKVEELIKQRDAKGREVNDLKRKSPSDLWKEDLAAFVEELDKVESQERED",
  "assay": "X-ray crystallography (2.54 Å); 100 mM MgCl2; crystallized with 2 mM compound C-Bi (not visible in the structure); cleavage complex; Crystallization: protein and DNA (1.2-fold molar ratio to protein) with 2 mM C-Bi; reservoir 100 mM MgCl2, 50 mM sodium citrate pH 5.3, 20% MPD, 0.05% ethyl acetate, 4 °C; protein buffer 30 mM Tris-HCl pH 7.5, 70 mM NaCl, 2 mM β-mercaptoethanol, 1 mM EDTA",
  "conditions": "protein: recombinant; chain copies: 2; blunt; self-complementary, 2 copies of the same strand",
  "data": [
    {"binder": "B1", "values": [
      {"measurement": "binding result", "value": "binds"}
    ]}
  ]
}
